Laboratory results as given in patent publication US12612650B2, “Methods for improved homologous recombination and compositions thereof” (LIFE TECHNOLOGIES CORPORATION, priority 2017, dated 2026).
Where “and” joins values, the source holds several entries; their conditions need not be identical. Equal values may be shown once. Marks after values point to notes of the source that are not given here.

Experiments:
Type in all cases: cell-based, human
[1] = test system: LRRK2 genomic locus; test: Junction PCR and sequencing of clonal A549 cells, N-terminal tagging of LRRK2
Protocol: (§1) 293FT or A549 cells were maintained in DMEM medium supplemented with 10% FBS. On the day of transfection, cells were detached from the culture flask and counted. For each electroporation, 1.5 μg of Cas9 protein and 360 ng of gRNA were added to Resuspension Buffer R to a final volume of 7 μl, but the total volume of Cas9 protein plus gRNA added was less than 1 μl. Upon mixing, the sample was incubated at room temperature for 5 to 10 minutes to form Cas9 RNPs complex. Meanwhile, aliquots of 1×10^6 cells were washed once with DPBS without Ca^2+ and Mg^2+ and the cell pellets were resuspended in 50 μl of Resuspension Buffer R. A 5 μl aliquot of cell suspension was then mixed with 7 μl of Cas9 RNPs, followed by addition of 1 μl indicated amount of donor DNA. 10 μl of cell suspension containing Cas9 RNP and donor was applied to NEON® electroporation (Thermo Fisher Scientific, cat. no. MPK5000) with voltage set at 1150V, pulse width set at 20 ms, and the number of pulses set at 2, respectively. The electroporated cells were transferred to a 48-well plate containing 0.5 ml culture media. Samples without either gRNA or donor DNA served as controls. At 48 hours post transfection, the cells were analyzed by flow cytometry. Alternatively, the genomic loci were PCR-amplified with the corresponding primers. The resulting PCR fragments were analyzed using the GENEART® Genomic Cleavage Detection assay. The edited cells were further subjected to limiting dilution, followed by clonal cell isolation. The clonal cells were characterized by PCR amplification of both the N- and C-terminal junctions and sequencing. The sequencing data were analyzed using VECTOR NTI ADVANCE® 11.5 software (Thermo Fisher Scientific).
Besides beta-actin, we also evaluated a different protein in a different cell line. LRRK2 protein is related to Parkinson's disease with a molecular weight of approximately 280 kd. A gRNA was designed to target the LRRK2 genomic locus near the start codon. Approximately 35 nt homology arms were added to a sequence-verified promoterless puromycin-P2A-EmGFP DNA fragment via PCR amplification. The Cas9 RNP and donor DNA were co-delivered into A549 cells via NEON® electroporation using 1050 volts, 30 milliseconds and 2 pulses. Because LRRK2 is relatively low abundant protein, we were not able to detect EmGFP signal inside the cells. […] To examine the integration efficiency, the cells were treated with 0.75 μg/ml puromycin for 7 days at 48 hours post transfection, followed by limiting dilution and clonal cell isolation. The junctions were analyzed by PCR using one inner primer and one outer primer, or a pair of outer primers. The resulting PCR products were analyzed by sequencing to determine the precision of integration. […]

[2] = test system: genomic locus of beta-actin; test: OFP-positive cells by flow cytometry after electroporation of Cas9 RNP and donor DNA into 293FT cells
Protocol: as §1
To evaluate the strategy of tagging endogenous protein, we fused the OFP gene to the N-terminus of beta-actin. Beta-actin is one of the most abundant proteins in eukaryotes, so it is easy to monitor using fluorescence microscopy. A gRNA was designed and synthesized to target the genomic locus of beta-actin near the ATG start codon (Table 12) and then complexed with Cas9 nuclease to form RNPs. The relevant 35 nt homology arms were added to a sequence-verified promoterless puromycin-P2A-OFP DNA fragment by PCR amplification. The resulting donor PCR fragments were purified using PureLink™ PCR Purification Kit and then concentrated using a speed-vac to a final concentration of around 1 μg/μl. To examine the effect of donor dosage on HDR efficient, we kept the amount of Cas9 RNP constant and varied the amount of donor DNA. The Cas9 RNP and donor DNA were transfected into 293 FT via electroporation. At 48 hours post transfection, the cells were analyzed by fluorescence microscope. When the cells were transfected with Cas9 RNP alone or Cas9 protein with donor DNA, no OFP-positive cells were detected, whereas OFP-positive cells were observed when cells were transfected with Cas9 RNP and donor DNA. The percentages of OFP-positive cells were determined by flow cytometric analysis. Without selection, the percentage of OFP-positive cells increased from approximately 5% to 20% when the amount of donor DNA increased from 25 ng to 500 ng (FIG. 2A). The optimal amount of donor DNA was around 500 ng per reaction. On the other hand, after treatment of transfected cells with 1 μg/ml puromycin for 7 days, approximately 80% of cells were OFP-positive. There was no significant difference in the percentage of OFP-positive cells between different amounts of donor DNA (FIG. 2A). Next, we examined the effect of homology arm length on HDR efficiency. Various lengths of homology arms were added to the promoterless puromycin-P2A-OFP DNA fragment by PCR amplification. As depicted in FIG. 2B, when the homology arm length increased from 12 nt to 80 nt, the percentage of OFP-positive cells increased and then plateaued at around 35 nt.
Traditionally, a plasmid donor was used to incorporate large DNA molecules into the genome. […]

[3] = test system: beta-actin locus; test: Junction PCR and sequencing of clonal 293FT cells, integration at beta-actin locus
Protocol: as §1
To examine the identity of integration sites, cells transfected with Cas9 RNP and donor DNA were subjected to puromycin selection, limiting dilution, and clonal cell isolation. A total of 48 colonies were randomly picked for junction PCR analysis. […] All the other 47 colonies gave rise to PCR products for both N- and C-terminal junctions when one outer primer and one inner primer were used. The PCR product was also observed when a pair of outer primers was used with the size of about 420 bp, which corresponded to the genomic DNA fragment without an insert. The reason why a large PCR product containing the insert was not observed was because the smaller DNA fragment without the insert was preferentially amplified. […] The other 18% of clonal cells also contained the insert but had mutations at the junction areas (FIG. 3A(2)). Most of the mutations were deletion and insertion. Sometimes a duplicate sequence of a partial or full-length homology arm was inserted at the junction. At the C-terminal junction, approximately 78% of the clonal cells harbored precise HDR (FIG. 3B(1)) whereas the other 22% of cells had Indel formation at the junction (FIG. 3B(2)). Rarely, a relatively large piece of donor DNA (up to 165 nt) was deleted at the C-terminal junction. Overall, all the clonal cells contained one copy of donor DNA at the right genomic locus in one of the alleles with 68% of cells harbored precise HDR at both N- and C-termini and 32% of cells harbored imperfect HDR at either N- or C-terminus or both. […] Instead, approximately 80% of the clones had one “A” insertion at the Cas9 cleavage site and 20% of the clones harbored more than 2 nt deletion. Only one wild type clone was detected at the second allele (FIG. 3C). Most of the clones expressed both wild type beta-actin and OFP fusion of beta-actin as confirmed by Western Blot analysis.
To characterize each clonal cell in the stable pool, we performed limiting dilution and clonal cell isolation. The junctions of integration were analyzed by PCR and sequencing. As depicted in FIGS. 8B and 8C, approximately 88% of clonal cells harbored precise integration at N-terminal junction whereas 12% of clonal cells had some extra sequences inserted at the junction. […]

[4] = LRRK2, N-terminus, A549 clonal cells
[5] = Beta-actin, N-terminus, 293FT clonal cells

Molecule	Efficiency at allele 1 HDR/Indel [1, 4]	Efficiency at allele 1 Precise HDR [1, 4]	Efficiency at allele 2 No HDR/Indel ([1]; LRRK2, N-terminus, A549 clonal cells, 7 nt deletion)	integration efficiency ([1]; all 86 colonies contained at least one copy of the insert)	percentage of OFP-positive cells ([2]; after 1 μg/ml puromycin for 7 days)	% of functional Cells ([2]; determined by flow cytometry)	homology arm length at which percentage of OFP-positive cells plateaued ([2]; homology arm length 12 nt to 80 nt)	optimal amount of donor DNA ([2]; without selection)	percentage of OFP-positive cells ([2]; without selection, 25 ng donor DNA, 48 hours post transfection)	percentage of OFP-positive cells ([2]; without selection, 500 ng donor DNA, 48 hours post transfection)	Efficiency at allele 1 HDR/Indel [3, 5]	Efficiency at allele 2 No HDR/Indel [3, 5]	Efficiency at allele 2 Precise HDR [3, 5]	clonal cells with Indel formation / small mutations at the C-terminal junction ([3]; beta-actin locus, 293FT)	clonal cells with mutations or extra sequences at the N-terminal junction ([3]; beta-actin locus, 293FT)	clonal cells with precise HDR / correct junction at the C-terminal junction ([3]; beta-actin locus, 293FT)	clonal cells with precise HDR at the N-terminal junction ([3]; beta-actin locus, 293FT)	clones wild type (wt) ([3]; second allele)	clones with more than 2 nt deletion ([3]; second allele (no insert))	clones with one 'A' insertion at the Cas9 cleavage site ([3]; second allele (no insert))
puromycin-P2A-EmGFP: donor DNA, 1.4 kb: promoterless puromycin-P2A-EmGFP fragment with approximately 35 nt homology arms to LRRK2 locus	0%	100%	80%	100%	–	–	–	–	–	–	–	–	–	–	–	–	–	–	–	–
puromycin-P2A-OFP: donor DNA, 1.4 kb: promoterless puromycin-P2A-OFP fragment with 35 nt homology arms to the beta-actin locus (nucleic acid, misc_feature 1..1402 Description of Unknown: Beta Actin sequence, donor DNA, 1.4 kb: promoterless puromycin-P2A-OFP fragment with 35 nt homology arms to the beta-actin locus) DNA: CACAGCGCGCCCGGCTATTCTCGCAGCTCACCATGACCGAGTACAAGCCCACAGTGCGGCTGGCCACCAGGGACGATGTGCCTAGAGCTGTGCGGACACTGGCCGCTGCCTTCGCCGATTACCCTGCCACCAGACACACCGTGGACCCCGACAGACACATCGAGAGAGTGACCGAGCTGCAGGAACTGTTTCTGACCAGAGTGGGCCTGGACATCGGCAAAGTGTGGGTGGCCGATGATGGCGCCGCTGTGGCTGTGTGGACAACCCCTGAGTCTGTGGAAGCCGGCGCTGTGTTCGCCGAGATCGGACCTAGAATGGCCGAGCTGAGCGGCTCTAGACTGGCTGCCCAGCAGCAGATGGAAGGCCTGCTGGCCCCCCACAGACCTAAAGAGCCTGCCTGGTTTCTGGCCACCGTGGGCGTGTCACCTGACCACCAGGGCAAGGGACTGGGATCTGCTGTGGTGCTGCCTGGCGTGGAAGCTGCTGAAAGGGCTGGCGTGCCCGCCTTCCTGGAAACAAGCGCCCCCAGAAACCTGCCCTTCTACGAGAGACTGGGCTTCACCGTGACCGCCGACGTGGAAGTGCCTGAGGGCCCTAGAACCTGGTGCATGACCAGAAAGCCTGGCGCCGGAAGCGGAGCTACTAACTTCAGCCTGCTGAAGCAGGCTGGAGACGTGGAGGAGAACCCTGGACCTAACCTGAGCAAAAACGTGAGCGTGAGCGTGTATATGAAGGGGAACGTCAACAATCATGAGTTTGAGTACGACGGGGAAGGTGGTGGTGATCCTTATACAGGTAAATATTCCATGAAGATGACGCTACGTGGTCAAAATTCCCTACCCTTTTCCTATGATATCATTACCACGGCATTTCAGTATGGTTTCCGCGTATTTACAAAATACCCTGAGGGAATTGTTGACTATTTTAAGGATTCGCTTCCCGACGCATTCCAGTGGAACAGACGAATTGTGTTTGAAGATGGTGGAGTACTAAACATGAGCAGTGATATCACATATAAAGATAATGTTCTGCATGGTGACGTCAAGGCTGAGGGAGTGAACTTCCCGCCGAATGGGCCAGTGATGAAGAATGAAATTGTGATGGAGGAACCGACTGAAGAAACATTTACTCCAAAAAACGGGGTTCTTGTTGGCTTTTGTCCCAAAGCGTACTTACTTAAAGATGGTTCCTATTACTATGGAAATATGACAACATTTTACAGATCCAAGAAATCTGGCCAGGCACCTCCTGGGTATCACTTTGTTAAGCATCGTCTCGTCAAGACCAATGTGGGACATGGATTTAAGACGGTTGAGCAGACTGAATATGCCACTGCTCATGTCAGTGATCTTCCCAAATTCGAAGCTGATGATGATATCGCCGCGCTCGTCGTCGACAACGG	–	–	–	–	approximately 80%	80%^a	around 35 nt	around 500 ng per reaction	approximately 5%	~20%	32%	100%	0%	22%	18%	approximately 78%	approximately 82%	2%	18% and 20%	approximately 80%
